Test in all cases: Kd (EC50 corrected by depletion factor)
One data set concerns the target T1, LSM7 (UniProt Q9UK45).
T1 sequence: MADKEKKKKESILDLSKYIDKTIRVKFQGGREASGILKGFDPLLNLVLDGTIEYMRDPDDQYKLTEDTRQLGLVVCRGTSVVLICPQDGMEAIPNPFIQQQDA
In outline: (§1)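 HEK293-FT lysate (2.5 mg protein/well) was pre-incubated 1 h at 4°C with free RNA oligos (0 nM to 30 μM), then 30 min at 4°C with the same 5′-amino-C6 oligos coupled to NHS-Sepharose beads. Bound proteins were quantified by label-free LC-MS/MS in three biological replicates and two independent experiments, and normalised to the water control. EC50 came from a four-parameter log-logistic fit; Kd is EC50 times a protein-dependent depletion factor.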

The next data set concerns the target T2, FIP1L1 (UniProt Q6UN15).
T2 sequence: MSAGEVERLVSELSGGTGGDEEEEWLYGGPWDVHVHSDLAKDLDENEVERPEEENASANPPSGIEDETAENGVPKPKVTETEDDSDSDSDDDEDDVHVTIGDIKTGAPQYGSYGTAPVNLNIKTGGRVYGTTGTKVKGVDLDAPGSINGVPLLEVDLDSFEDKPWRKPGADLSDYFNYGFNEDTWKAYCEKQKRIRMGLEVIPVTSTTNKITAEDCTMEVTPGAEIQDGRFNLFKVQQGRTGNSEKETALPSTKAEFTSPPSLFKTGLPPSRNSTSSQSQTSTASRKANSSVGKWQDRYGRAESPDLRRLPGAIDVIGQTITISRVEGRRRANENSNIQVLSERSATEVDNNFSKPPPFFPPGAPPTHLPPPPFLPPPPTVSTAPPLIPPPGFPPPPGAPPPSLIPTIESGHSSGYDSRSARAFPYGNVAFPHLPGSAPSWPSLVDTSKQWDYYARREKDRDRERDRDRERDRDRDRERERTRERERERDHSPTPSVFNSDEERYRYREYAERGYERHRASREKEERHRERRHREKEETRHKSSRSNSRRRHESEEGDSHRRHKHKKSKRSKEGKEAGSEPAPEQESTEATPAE
In outline: as §1

A further data set concerns the target T3, WDR33 (UniProt Q9C0J8).
T3 sequence: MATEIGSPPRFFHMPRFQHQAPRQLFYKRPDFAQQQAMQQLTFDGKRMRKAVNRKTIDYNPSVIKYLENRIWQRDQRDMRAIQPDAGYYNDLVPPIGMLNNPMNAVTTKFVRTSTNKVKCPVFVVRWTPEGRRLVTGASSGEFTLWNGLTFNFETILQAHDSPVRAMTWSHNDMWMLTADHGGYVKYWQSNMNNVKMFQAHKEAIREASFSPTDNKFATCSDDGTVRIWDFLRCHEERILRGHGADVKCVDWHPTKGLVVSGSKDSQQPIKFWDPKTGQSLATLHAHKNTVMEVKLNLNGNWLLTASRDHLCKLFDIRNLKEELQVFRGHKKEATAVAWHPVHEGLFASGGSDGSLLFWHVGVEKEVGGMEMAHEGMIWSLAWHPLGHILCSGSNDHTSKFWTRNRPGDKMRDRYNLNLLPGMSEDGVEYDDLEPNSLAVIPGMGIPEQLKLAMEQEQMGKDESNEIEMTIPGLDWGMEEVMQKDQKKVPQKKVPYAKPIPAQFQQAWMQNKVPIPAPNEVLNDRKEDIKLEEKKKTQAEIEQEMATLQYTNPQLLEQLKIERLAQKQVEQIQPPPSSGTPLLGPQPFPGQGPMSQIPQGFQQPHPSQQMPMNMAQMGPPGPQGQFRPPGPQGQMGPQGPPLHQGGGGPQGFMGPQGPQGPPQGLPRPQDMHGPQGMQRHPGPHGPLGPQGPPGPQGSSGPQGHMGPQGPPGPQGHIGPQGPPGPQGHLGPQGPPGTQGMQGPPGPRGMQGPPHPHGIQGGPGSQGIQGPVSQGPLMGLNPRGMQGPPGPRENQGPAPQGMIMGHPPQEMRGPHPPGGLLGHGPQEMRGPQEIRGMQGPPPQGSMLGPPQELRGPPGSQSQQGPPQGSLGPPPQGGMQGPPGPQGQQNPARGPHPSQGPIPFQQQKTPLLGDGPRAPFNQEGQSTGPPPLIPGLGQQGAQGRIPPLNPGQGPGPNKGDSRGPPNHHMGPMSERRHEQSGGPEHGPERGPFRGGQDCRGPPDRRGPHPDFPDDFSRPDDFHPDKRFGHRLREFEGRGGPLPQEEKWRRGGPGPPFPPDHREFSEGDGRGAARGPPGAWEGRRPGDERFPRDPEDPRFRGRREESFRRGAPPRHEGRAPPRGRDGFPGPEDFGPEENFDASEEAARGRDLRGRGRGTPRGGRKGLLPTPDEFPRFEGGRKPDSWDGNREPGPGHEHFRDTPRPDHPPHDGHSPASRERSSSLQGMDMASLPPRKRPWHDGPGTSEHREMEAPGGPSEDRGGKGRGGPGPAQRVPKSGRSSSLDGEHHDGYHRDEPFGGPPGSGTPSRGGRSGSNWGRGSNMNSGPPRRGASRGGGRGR
In a few lines:
as §1

Take AAUAAA: the dissociation constant Kd in the data set with LSM7 stood at 142 nM; with FIP1L1, 8.24 nM; with WDR33, 5.98 nM.
Regarding UAUUUAU, the Kd is 270 nM in the data set with LSM7, 482 nM with FIP1L1 and 338 nM in the data set with WDR33.

Source of the values: the supplement of paper PMC6379048.
